T1: ACVR1 (UniProt Q04771 21-123)
T1 sequence (looked up): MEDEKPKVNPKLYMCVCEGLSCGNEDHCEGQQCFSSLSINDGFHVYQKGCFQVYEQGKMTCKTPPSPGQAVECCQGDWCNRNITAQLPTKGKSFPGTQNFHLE

T2: human ACVR2B.Fc fusion protein (human, UniProt Q13705 19-137)
T2 construct: Probably the extracellular domain (surmise); Captured on Protein A in one SPR experiment, coupled to the chip in another
T2 sequence (looked up): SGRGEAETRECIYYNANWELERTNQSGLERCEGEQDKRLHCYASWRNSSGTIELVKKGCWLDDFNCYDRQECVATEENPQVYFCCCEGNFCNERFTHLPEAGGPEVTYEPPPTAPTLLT

T3: Activin A.∆D406 (human, UniProt P08476 311-426, ∆D406)
T3 sequence: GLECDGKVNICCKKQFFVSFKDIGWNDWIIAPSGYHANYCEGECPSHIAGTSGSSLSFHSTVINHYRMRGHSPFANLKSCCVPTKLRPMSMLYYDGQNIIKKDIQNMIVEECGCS

T4: monomeric extracellular domain of ACVR2B (UniProt Q13705 19-137)
T4 construct: ACVR2B, extracellular domain, monomeric
T4 sequence (looked up): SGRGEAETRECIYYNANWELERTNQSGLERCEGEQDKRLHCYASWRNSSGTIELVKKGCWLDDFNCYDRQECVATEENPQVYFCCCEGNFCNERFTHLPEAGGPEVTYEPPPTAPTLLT

B1: human ACVR2B.Fc fusion protein (Fc fusion)
chain: SGRGEAETRECIYYNANWELERTNQSGLERCEGEQDKRLHCYASWRNSSGTIELVKKGCWLDDFNCYDRQECVATEENPQVYFCCCEGNFCNERFTHLPEAGGPEVTYEPPPTAPTLLT

Key:
ACVR1 [1] = molecular target: ACVR1 (UniProt Q04771)
[2] = molecular target: B1; experiment: SPR
[3] = molecular target: B1; experiment: SPR
ACVR1 [4] = molecular target: T1, ACVR1; experiment: cell-based or functional assay
[5] = molecular target: T2, human ACVR2B.Fc fusion protein; experiment: SPR; Biacore 3000, CM5 chip; human ACVR2B.Fc captured on covalently immobilised Protein A; ligand 100nM-0.14 nM flowed at 100 uL/minute; 25°C; HBS-EP (10 mM Hepes, 150 mM NaCl, 3.4 mM EDTA, 0.05% polysorbate 20, pH 7.4); 1:1 binding model with mass transport limitation; settings: both partners purified
Activin A.∆D406 [6] = molecular target: T3, Activin A.∆D406; experiment: SPR
Activin A.∆D406 [7] = molecular target: T3, Activin A.∆D406; experiment: SPR; remark: listed apart in the source
[8] = molecular target: T4, monomeric extracellular domain of ACVR2B; experiment: SPR; complexes of ligand•type II receptor extracellular domain formed at 1:2.5 ratio and injected over captured ACVR1B-Fc and ACVR1-Fc; settings: both partners purified

koff [2] | Kd [3] | binding result [5] | Molecule | also measured
– | – | – | Activin A (from UniProt P08476 311-426) (ligand) | IC50 of inhibition of BMP7 (12 nM)-induced Smad1/5/8 luciferase reporter signal in HEK293 cells (ACVR1 [1]): 1400 pM
0.00027 s⁻¹ | 5.11 pM | – | Activin A.Nod.F2TL (ligand) GLECDGKVNICCKKQFFVSFKDIGWNDWIIAPSGYHANYCEGECPSHIAGTSGSSLSFHSTVINHYRMRGHSPFANLKSCCVPTKLRPMSMLYYDNGRIIKKDIQNMIVEECGCS | –
– | – | binds | Activin A.∆D406 (ligand, human, UniProt P08476 311-426, looked up, also called ActA.ΔD406; source: CHO-K1 cells expressing human Furin, stably expressed, purified (heparin, size exclusion, C4 reverse phase)) GLECDGKVNICCKKQFFVSFKDIGWNDWIIAPSGYHANYCEGECPSHIAGTSGSSLSFHSTVINHYRMRGHSPFANLKSCCVPTKLRPMSMLYYDGQNIIKKDIQNMIVEECGCS | IC50 of inhibition of BMP7 (12 nM)-induced Smad1/5/8 luciferase reporter signal in HEK293 cells (ACVR1 [4]): 20000 pM
– | – | – | B1 | koff (Activin A.∆D406 [6]): 0.000254 s⁻¹; Kd (Activin A.∆D406 [7]): 4.62 pM
8.46e-05 s⁻¹ | 4.49 pM | binds | Activin A (ligand, human, UniProt P08476 311-426, looked up, Activin A (inhibin beta A chain), human, mature region cloned downstream of the mouse Inhba pro-peptide; the mature dimer was isolated; rhActivin A from R and D Systems is named only for the in vivo implants; also called wild-type Activin A; Activin A WT; source: CHO-K1 cells expressing human Furin, stably expressed, purified (heparin, size exclusion, C4 reverse phase)) GLECDGKVNICCKKQFFVSFKDIGWNDWIIAPSGYHANYCEGECPSHIAGTSGSSLSFHSTVINHYRMRGHSPFANLKSCCVPTKLRPMSMLYYDDGQNIIKKDIQNMIVEECGCS | binding result [8]: binds

Reference: paper PMC7326492 (eLife, 2020)
